According to PMC5435981:

Target: APOBEC3A E72A (A3A-E72A) (Homo sapiens, UniProt P31941 1-199, E72A)
Assay: ITC

Sequence of APOBEC3A E72A (A3A-E72A) (P31941 whole entry E72A): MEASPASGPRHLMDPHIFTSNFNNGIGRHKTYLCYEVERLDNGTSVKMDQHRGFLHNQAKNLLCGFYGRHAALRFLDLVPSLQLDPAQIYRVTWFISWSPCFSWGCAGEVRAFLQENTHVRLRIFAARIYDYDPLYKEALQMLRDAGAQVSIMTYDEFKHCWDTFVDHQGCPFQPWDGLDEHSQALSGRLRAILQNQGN

## AATTCAAAA (ssDNA) [A2TTCA4]
  Kd: 17 ± 6 µM
